Experimental data taken from patent US20240029824A1 (University of Washington, published 2024).

T1: DHT01-4arm-02 chain B
T1 construct: Strep-tag II was added to the N-terminus of chain B of DHT01 arms; also called C2-DHT01-04 chain B
T1 chain: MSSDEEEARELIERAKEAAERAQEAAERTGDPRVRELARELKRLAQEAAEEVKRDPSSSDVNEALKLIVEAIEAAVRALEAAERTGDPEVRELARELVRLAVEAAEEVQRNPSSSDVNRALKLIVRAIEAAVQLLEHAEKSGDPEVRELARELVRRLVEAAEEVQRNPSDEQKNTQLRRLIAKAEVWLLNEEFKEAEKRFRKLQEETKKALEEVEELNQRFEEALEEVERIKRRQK

T2: DHT01-4arm-01 chain B
T2 construct: Strep-tag II was added to the N-terminus of chain B of DHT01 arms
T2 chain: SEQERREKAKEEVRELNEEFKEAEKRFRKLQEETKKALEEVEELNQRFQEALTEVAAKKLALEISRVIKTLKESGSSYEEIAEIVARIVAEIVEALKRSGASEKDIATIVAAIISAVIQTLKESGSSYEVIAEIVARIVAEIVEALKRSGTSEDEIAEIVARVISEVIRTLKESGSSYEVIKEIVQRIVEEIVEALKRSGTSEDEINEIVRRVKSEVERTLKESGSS

T3: DHT01-4arm-01 chain C
T3 construct: also called DHT01-4arm-02 chain C; C2-DHT01-01 chain B
T3 chain: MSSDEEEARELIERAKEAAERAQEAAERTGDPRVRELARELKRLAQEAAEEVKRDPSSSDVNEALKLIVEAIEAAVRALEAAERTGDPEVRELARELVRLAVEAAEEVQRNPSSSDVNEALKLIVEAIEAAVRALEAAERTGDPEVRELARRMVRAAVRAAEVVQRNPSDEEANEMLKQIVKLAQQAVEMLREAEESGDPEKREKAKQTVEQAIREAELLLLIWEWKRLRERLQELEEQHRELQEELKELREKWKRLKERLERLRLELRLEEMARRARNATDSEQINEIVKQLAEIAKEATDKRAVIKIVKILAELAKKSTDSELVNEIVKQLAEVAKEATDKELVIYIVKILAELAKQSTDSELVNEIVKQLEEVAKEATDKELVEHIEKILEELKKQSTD


Assays:
DHT01-4arm-02 chain B [1] = target: T1, DHT01-4arm-02 chain B; experiment: bicistronic expression, SAXS, negative stain EM; A2B2 ring
DHT01-4arm-02 chain B [2] = target: T1, DHT01-4arm-02 chain B; experiment: SEC and SDS-PAGE; chains of one ABC heterotrimer
DHT01-4arm-01 chain B = target: T2, DHT01-4arm-01 chain B; experiment: co-expression, pull-downs, SEC, native MS, SAXS; chains of one ABC heterotrimer
DHT01-4arm-01 chain C = target: T3, DHT01-4arm-01 chain C; experiment: as above

binding result (DHT01-4arm-02 chain B [1]) | binding result (DHT01-4arm-02 chain B [2]) | binding result (DHT01-4arm-01 chain B) | binding result (DHT01-4arm-01 chain C) | Binder
binds | – | – | – | C2-DHT01-04 chain A (designed binder, two copies in the A2B2 ring) DEEEKLRESLEEQKKRVKEIEREHEEIREALKRLQQSVLRQAVRLAKLGDDSEMINRIVKDLAEQAKEATDKREVIKIVKALAELAKNSTDRELINEIAKQLAEVAKEATDEELQRYIAKILIELAEQAIKEAERSLREGNPEKAREDVRLALELVRLLLEIAQALNLLEVLEEAARLAFEVARVAKEVGSPETARQARETAERLLEWAMKMIEEKAKKEKDRNDQSSDVNEAAKLIREAAEAAQRAREAASRTGDPEVKDLAWRMVEAALKAAAVVATNPSDEEANEMLKQIVKLAQQAVEMLREAEESGDPEKREKAKQTVEQAIREAELLLLIWEWKRLRERLQELEEQHRELQEELKELREKWKRLKERLERLRLELRLEEMARRARNATDSEQINEIVKQLAEIAKEATDKRAVIKIVKILAELAKKSTDSELVNEIVKQLAEVAKEATDKELVIYIVKILAELAKQSTDSELVNEIVKQLEEVAKEATDKELVEHIEKILEELKKQSTD
– | binds | binds | binds | DHT01-4arm-01 chain A (designed binder, also called DHT01-4arm-02 chain A) DEEEKLRESLEEQKKRVKEIEREHEEIREALKRLQQSVLRQAVRLAKLGDDSEMINRIVKDLAEQAKEATDKREVIKIVKALAELAKNSTDSELVNEIVKQLAEVAKEATDKELVIYIVKILAELAKQSTDSELVNEIVKQLEEVAKEATDKELVEHIEKILEELKKQSTD
